Earlier results as cited in paper PMC4223872.

Target: Calmodulin C-lobe (Homo sapiens) (UniProt P0DP23)
Experiment: ITC

Sequence of Nav1.5 1489-1522 (Q14524 1489-1522): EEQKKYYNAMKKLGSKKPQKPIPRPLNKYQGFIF

For Nav1.5 1489-1522 (from UniProt Q14524), the Kd is listed as 19 µM.
